T1: GST-THOC6 WT (UniProt Q86W42 1-341)
T1 sequence: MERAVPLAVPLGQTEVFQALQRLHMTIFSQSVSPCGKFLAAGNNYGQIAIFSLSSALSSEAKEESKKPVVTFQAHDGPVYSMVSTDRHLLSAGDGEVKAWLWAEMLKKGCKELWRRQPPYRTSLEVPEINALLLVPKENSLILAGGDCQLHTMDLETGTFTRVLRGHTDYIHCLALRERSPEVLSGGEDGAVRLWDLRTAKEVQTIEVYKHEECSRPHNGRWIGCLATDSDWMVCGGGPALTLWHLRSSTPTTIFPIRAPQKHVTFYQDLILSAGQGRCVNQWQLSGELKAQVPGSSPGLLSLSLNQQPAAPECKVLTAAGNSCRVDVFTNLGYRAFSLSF

T2: THOC6-FLAG (UniProt Q86W42 1-341)
T2 sequence: T1 sequence

B1: C4D (C4-ssDNA + C4-ssRNA) (DNA:RNA)
DNA: CCCGGGAGGCGGAGGTTGCAGTGAACCAAGATCGCGCCATTGCACTCCAGCCTGGG
RNA: CCCAGGCUGGAGUGCAAUGGCGCGAUCUUGGUUCACUGCAACCUCCGCCUCCCGGG
B2: OSD (OS4D; OS-ssDNA + OS-ssRNA) (DNA:RNA)
DNA: CGCCCTCCCGCCCCCTCGGGGCCCCGCCCCTGGGCCTCTCAGGCCCCTCCCCTGCGCTCC
RNA: GGAGCGCAGGGGAGGGGCCUGAGAGGCCCAGGGGCGGGGCCCCGAGGGGGCGGGAGGGCG

What was measured:
GST-THOC6 WT = molecular target: T1, GST-THOC6 WT; assay: streptavidin pull-down; EMSA: 20 mM Tris pH 7.5, 2 mM DTT, 12 mM MgCl2, 100 mM NaCl, 10% glycerol, 30 min RT; pull-downs: 4 C overnight or 37 C 2 h (Fig S5A: 4 h), buffer not given in; conditions: protein: recombinant; tags: GST (pGEX-4T1), FLAG; label: 5' biotin on DNA or RNA strand; blunt
THOC6-FLAG [1] = molecular target: T2, THOC6-FLAG; assay: streptavidin pull-down; 4 C overnight or 37 C 2 h; EMSA: 20 mM Tris pH 7.5, 2 mM DTT, 12 mM MgCl2, 100 mM NaCl, 10% glycerol, 30 min RT; pull-downs: 4 C overnight or 37 C 2 h (Fig S5A: 4 h), buffer not given in; conditions: protein: recombinant; tags: C-terminal FLAG (DYK); label: 5' biotin on DNA or RNA strand; blunt
THOC6-FLAG [2] = molecular target: T2, THOC6-FLAG; assay: streptavidin pull-down; 4 C overnight or 37 C; EMSA: 20 mM Tris pH 7.5, 2 mM DTT, 12 mM MgCl2, 100 mM NaCl, 10% glycerol, 30 min RT; pull-downs: 4 C overnight or 37 C 2 h (Fig S5A: 4 h), buffer not given in; conditions: protein: recombinant; tags: C-terminal FLAG (DYK); label: 5' biotin on DNA or RNA strand; blunt

Binder | binding result (GST-THOC6 WT) | binding result (THOC6-FLAG [1]) | binding result (THOC6-FLAG [2])
B1 | binds | binds | 
B2 |  |  | binds

Source: paper PMC9800341, “THOC5 complexes with DDX5, DDX17, and CDK12 to regulate R loop structures and transcription elongation rate”
